Source: patent US20240425601A1 (University of California, published 2024)

Molecular target: cell surface-expressed human αvβ8 (human, UniProt P06756 31-1048; P26012 43-769)
Assay: cell-based or functional assay

Sequence of cell surface-expressed human αvβ8 (P06756 31-1048, chain 1 of 2): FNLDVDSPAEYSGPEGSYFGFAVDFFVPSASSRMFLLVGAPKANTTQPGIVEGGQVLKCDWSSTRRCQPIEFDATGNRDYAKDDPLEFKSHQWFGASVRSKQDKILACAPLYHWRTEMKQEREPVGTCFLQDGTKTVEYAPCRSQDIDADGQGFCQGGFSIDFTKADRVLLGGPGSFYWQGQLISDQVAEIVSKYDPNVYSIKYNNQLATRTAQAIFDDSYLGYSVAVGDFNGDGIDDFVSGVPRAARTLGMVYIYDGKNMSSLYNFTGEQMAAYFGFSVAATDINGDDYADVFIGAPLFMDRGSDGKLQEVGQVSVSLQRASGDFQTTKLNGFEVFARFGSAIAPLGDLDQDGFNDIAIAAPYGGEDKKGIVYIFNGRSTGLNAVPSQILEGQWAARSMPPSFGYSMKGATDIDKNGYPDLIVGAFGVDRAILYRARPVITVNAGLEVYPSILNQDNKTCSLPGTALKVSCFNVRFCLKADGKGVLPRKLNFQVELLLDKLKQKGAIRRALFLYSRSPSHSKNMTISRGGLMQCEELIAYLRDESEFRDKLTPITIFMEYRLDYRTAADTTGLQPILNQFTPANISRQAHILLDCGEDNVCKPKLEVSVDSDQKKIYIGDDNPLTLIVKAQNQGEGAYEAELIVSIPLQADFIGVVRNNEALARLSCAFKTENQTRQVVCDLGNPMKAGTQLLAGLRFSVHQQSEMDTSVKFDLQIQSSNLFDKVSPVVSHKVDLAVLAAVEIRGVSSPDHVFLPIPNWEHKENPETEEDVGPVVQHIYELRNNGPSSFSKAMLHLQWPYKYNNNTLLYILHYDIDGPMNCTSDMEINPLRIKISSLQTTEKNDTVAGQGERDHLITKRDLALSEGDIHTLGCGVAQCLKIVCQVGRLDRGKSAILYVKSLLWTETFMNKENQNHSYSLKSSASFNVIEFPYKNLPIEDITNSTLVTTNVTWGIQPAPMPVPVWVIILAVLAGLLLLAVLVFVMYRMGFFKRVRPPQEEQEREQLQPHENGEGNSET
Sequence of cell surface-expressed human αvβ8 (P26012 43-769, chain 2 of 2): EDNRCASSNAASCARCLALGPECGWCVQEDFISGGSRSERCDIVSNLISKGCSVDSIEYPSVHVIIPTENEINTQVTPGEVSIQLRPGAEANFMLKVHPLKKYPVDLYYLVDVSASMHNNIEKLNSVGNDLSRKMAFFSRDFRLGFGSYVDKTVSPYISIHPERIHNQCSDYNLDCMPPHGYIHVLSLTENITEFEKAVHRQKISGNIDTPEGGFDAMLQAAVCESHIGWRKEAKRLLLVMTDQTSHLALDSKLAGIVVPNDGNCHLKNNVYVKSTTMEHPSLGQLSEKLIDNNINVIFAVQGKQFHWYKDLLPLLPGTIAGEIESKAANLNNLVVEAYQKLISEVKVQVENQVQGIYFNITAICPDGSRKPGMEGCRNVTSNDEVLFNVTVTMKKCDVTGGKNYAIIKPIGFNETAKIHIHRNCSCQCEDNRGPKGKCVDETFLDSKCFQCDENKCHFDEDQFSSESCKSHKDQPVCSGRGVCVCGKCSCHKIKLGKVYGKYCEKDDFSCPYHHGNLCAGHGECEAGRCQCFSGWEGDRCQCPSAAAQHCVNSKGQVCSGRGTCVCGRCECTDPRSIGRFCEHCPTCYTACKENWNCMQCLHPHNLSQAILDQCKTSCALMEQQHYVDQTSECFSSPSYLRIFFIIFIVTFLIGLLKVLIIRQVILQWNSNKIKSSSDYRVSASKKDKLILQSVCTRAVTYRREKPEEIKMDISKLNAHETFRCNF

B1: ADWA16 (antibody, V domains shown)
VH: QVQLQQSGAELAKPGASMKMSCKASGYTFSSYWIYWVKQRPGQGLEWIGYINPTTGYTEYNQKFRDKATLTADKSSNTAYMQLSSLTSEDSAVYYCATEGGNWEDYWGQGTTLTVSS
VL: DIQMTQTTSSLSASLGDRVTISCRASQDISNYLNWYQQKPDGTVKLLIYYTSRLYSGVPSRFSGSGSGTDYSLTISNLEPKDIATYYCQQFSELPRTFGGGTKLEIK
inhibition of adhesion of L229 cells expressing αvβ8 to TGFb1 LAP (potency against ADWA11): > 10 fold
